Data on five molecules can be found in US20210238260A1 (published 2021).

This experiment has as its target T1, Factor VIIIa (recombinant FVIII, Kogenate FS, activated with alpha-thrombin) (UniProt P00451 20-2351).
T1 construct: also called FVIIIa
T1 sequence (looked up): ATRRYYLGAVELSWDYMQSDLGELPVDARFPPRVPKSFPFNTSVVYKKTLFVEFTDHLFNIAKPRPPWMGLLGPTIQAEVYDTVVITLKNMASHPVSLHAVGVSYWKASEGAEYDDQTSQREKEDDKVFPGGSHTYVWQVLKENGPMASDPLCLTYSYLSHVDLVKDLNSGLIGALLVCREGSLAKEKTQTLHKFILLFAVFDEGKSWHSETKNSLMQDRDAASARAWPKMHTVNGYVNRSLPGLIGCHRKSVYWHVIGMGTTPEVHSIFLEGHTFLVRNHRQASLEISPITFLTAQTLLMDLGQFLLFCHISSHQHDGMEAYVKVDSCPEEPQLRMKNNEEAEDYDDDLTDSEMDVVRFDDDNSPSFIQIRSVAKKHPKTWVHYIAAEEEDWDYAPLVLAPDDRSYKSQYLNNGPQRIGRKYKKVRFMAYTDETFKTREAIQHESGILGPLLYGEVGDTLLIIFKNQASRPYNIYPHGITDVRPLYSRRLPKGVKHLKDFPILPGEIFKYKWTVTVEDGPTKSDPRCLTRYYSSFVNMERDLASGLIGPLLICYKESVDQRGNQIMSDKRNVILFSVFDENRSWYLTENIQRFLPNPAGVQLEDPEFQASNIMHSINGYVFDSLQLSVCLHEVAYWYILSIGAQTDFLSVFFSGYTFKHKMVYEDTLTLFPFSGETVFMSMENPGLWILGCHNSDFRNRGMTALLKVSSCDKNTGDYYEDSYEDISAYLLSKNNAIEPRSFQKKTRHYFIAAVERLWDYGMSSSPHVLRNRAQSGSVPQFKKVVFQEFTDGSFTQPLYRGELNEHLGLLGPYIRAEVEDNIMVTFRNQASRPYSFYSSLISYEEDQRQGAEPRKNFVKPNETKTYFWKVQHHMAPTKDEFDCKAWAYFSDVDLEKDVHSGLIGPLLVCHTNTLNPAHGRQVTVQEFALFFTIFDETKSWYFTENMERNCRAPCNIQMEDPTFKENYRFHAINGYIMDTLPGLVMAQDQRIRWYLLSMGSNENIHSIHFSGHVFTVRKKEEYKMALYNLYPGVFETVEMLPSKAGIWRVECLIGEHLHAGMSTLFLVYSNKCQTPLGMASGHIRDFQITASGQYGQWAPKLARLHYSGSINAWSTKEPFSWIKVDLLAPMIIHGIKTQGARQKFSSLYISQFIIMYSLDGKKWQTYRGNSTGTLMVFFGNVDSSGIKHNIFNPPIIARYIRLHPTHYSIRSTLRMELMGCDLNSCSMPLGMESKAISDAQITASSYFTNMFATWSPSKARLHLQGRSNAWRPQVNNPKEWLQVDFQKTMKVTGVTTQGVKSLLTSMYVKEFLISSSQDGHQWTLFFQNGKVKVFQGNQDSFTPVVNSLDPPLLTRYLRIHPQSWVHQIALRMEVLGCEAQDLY
Put plainly: functional cofactor affinity KD-app: fluorogenic FX activation (Xase) assay, FVIIIa titrated, PC/PS vesicles, saturating FX.

Description: Reactions were monitored in a SpectraMax fluorescence plate reader for 30 min at 37° C. A standard curve of free AMC served as the conversion factor for RFU to μM in the subsequent data analysis calculations using a dose range that covered 0 μM to 100 μM AMC.

B1: FIXa-K247N/N249S/R318Y/R338E/T343R (enzyme)
chain 1: YNSGKLEEFVQGNLERECMEEKCSFEEAREVFENTERTTEFWKQYVDGDQCESNPCLNGGSCKDDINSYECWCPFGFEGKNCELDVTCNIKNGRCEQFCKNSADNKVVCSCTEGYRLAENQKSCEPAVPFPCGRVSVSQTSKLTR
chain 2: VVGGEDAKPGQFPWQVVLNGKVDAFCGGSIVNEKWIVTAAHCVETGVKITVVAGEHNIEETEHTEQNRSVIRIIPHHNYNAAINKYNHDIALLELDEPLVLNSYVTPICIADKEYTNIFLKFGSGYVSGWGRVFHKGYSALVLQYLRVPLVDRATCLESTKFRIYNNMFCAGFHEGGRDSCQGDSGGPHVTEVEGTSFLTGIISWGEECAMKGKYGIYTKVSRYVNWIKEKTKLT
notes: also called K82N/N84S/R150Y/R170E/T175R (chymotrypsin numbering)
In the case of B1, the Kd came out at 14.7 nM.

B2: FIXa-R318Y/R338E/T343R (enzyme)
chain 1: YNSGKLEEFVQGNLERECMEEKCSFEEAREVFENTERTTEFWKQYVDGDQCESNPCLNGGSCKDDINSYECWCPFGFEGKNCELDVTCNIKNGRCEQFCKNSADNKVVCSCTEGYRLAENQKSCEPAVPFPCGRVSVSQTSKLTR
chain 2: VVGGEDAKPGQFPWQVVLNGKVDAFCGGSIVNEKWIVTAAHCVETGVKITVVAGEHNIEETEHTEQKRNVIRIIPHHNYNAAINKYNHDIALLELDEPLVLNSYVTPICIADKEYTNIFLKFGSGYVSGWGRVFHKGYSALVLQYLRVPLVDRATCLESTKFRIYNNMFCAGFHEGGRDSCQGDSGGPHVTEVEGTSFLTGIISWGEECAMKGKYGIYTKVSRYVNWIKEKTKLT
notes: also called R150Y/R170E/T175R (chymotrypsin numbering); CB2679d
On to B2, for which the Kd was determined as 9.8 nM.

B3: FIXa-K228N/K247N/N249S/R318Y/R338E/T343R/R403E/E410N (enzyme)
chain 1: YNSGKLEEFVQGNLERECMEEKCSFEEAREVFENTERTTEFWKQYVDGDQCESNPCLNGGSCKDDINSYECWCPFGFEGKNCELDVTCNIKNGRCEQFCKNSADNKVVCSCTEGYRLAENQKSCEPAVPFPCGRVSVSQTSKLTR
chain 2: VVGGEDAKPGQFPWQVVLNGKVDAFCGGSIVNEKWIVTAAHCVETGVNITVVAGEHNIEETEHTEQNRSVIRIIPHHNYNAAINKYNHDIALLELDEPLVLNSYVTPICIADKEYTNIFLKFGSGYVSGWGRVFHKGYSALVLQYLRVPLVDRATCLESTKFRIYNNMFCAGFHEGGRDSCQGDSGGPHVTEVEGTSFLTGIISWGEECAMKGKYGIYTKVSEYVNWIKNKTKLT
notes: also called K63N/K82N/N84S/R150Y/R170E/T175R/R233E/E240N (chymotrypsin numbering)
Regarding B3, the Kd was 29.1 nM.

B4: FIXa-R338E/T343R/E410N (enzyme)
chain 1: YNSGKLEEFVQGNLERECMEEKCSFEEAREVFENTERTTEFWKQYVDGDQCESNPCLNGGSCKDDINSYECWCPFGFEGKNCELDVTCNIKNGRCEQFCKNSADNKVVCSCTEGYRLAENQKSCEPAVPFPCGRVSVSQTSKLTR
chain 2: VVGGEDAKPGQFPWQVVLNGKVDAFCGGSIVNEKWIVTAAHCVETGVKITVVAGEHNIEETEHTEQKRNVIRIIPHHNYNAAINKYNHDIALLELDEPLVLNSYVTPICIADKEYTNIFLKFGSGYVSGWGRVFHKGRSALVLQYLRVPLVDRATCLESTKFRIYNNMFCAGFHEGGRDSCQGDSGGPHVTEVEGTSFLTGIISWGEECAMKGKYGIYTKVSRYVNWIKNKTKLT
notes: also called R170E/T175R/E240N (chymotrypsin numbering)
As for B4, the Kd amounted to 7.5 nM.

B5: FIXa-R338E/T343R/R403E (enzyme)
chain 1: YNSGKLEEFVQGNLERECMEEKCSFEEAREVFENTERTTEFWKQYVDGDQCESNPCLNGGSCKDDINSYECWCPFGFEGKNCELDVTCNIKNGRCEQFCKNSADNKVVCSCTEGYRLAENQKSCEPAVPFPCGRVSVSQTSKLTR
chain 2: VVGGEDAKPGQFPWQVVLNGKVDAFCGGSIVNEKWIVTAAHCVETGVKITVVAGEHNIEETEHTEQKRNVIRIIPHHNYNAAINKYNHDIALLELDEPLVLNSYVTPICIADKEYTNIFLKFGSGYVSGWGRVFHKGRSALVLQYLRVPLVDRATCLESTKFRIYNNMFCAGFHEGGRDSCQGDSGGPHVTEVEGTSFLTGIISWGEECAMKGKYGIYTKVSEYVNWIKEKTKLT
notes: also called R170E/T175R/R233E (chymotrypsin numbering)
As for B5, the Kd came to 55 nM.
